The target of assay [1] is γ2-GABAA subunit fused with a superecliptic pHluorin (SEP) tag (UniProt P18508).
For assay [2] the target is unchanged. The source holds these as a separate data set.
The target is the same in assay [3]. This is another data set of the same source.
The target of assay [4] is γ2-GABAA receptor (endogenous) (rat (endogenous in hippocampal neurons)) (UniProt P18508).

In assay [1], “dopamine D5 receptor (endogenous) (from UniProt P25115 1-475)” displayed a diffusion coefficient median of SEP-γ2-GABAARs at inhibitory synaptic sites with the disrupting peptide TATD5Ct (10 µM); control 1.81 10^−2 µm^2/s of 0.0578 µm^2/s; an explored area of SEP-γ2-GABAARs at inhibitory synapses with the disrupting peptide TATD5Ct (10 µM); control 0.30 10^−2 of 0.0133 µm^2/s; an immobile fraction (D < 0.005 µm^2/s) of SEP-γ2-GABAARs at inhibitory synapses, single nanoparticle tracking, after the disrupting peptide TATD5Ct (10 µM, 10 min); control 33% of 9%. In addition, in assay [2], the diffusion coefficient median of SEP-γ2-GABAARs at excitatory synapses with the disrupting peptide TATD5Ct (10 µM); control 3.15 10^−2 µm^2/s; no change (p = 0.13) is 0.0412 µm^2/s, the explored area of SEP-γ2-GABAARs at excitatory synapses with the disrupting peptide TATD5Ct (10 µM); control 0.60 10^−2 µm^2; unchanged (p = 0.097) stood at 0.0073 µm^2 and the immobile fraction of SEP-γ2-GABAARs at excitatory synapses with the disrupting peptide TATD5Ct (10 µM); no change was determined as 20%. Also, in assay [3], the diffusion coefficient median of extrasynaptic SEP-γ2-GABAARs after incubation with the disrupting peptide TATD5Ct (10 µM); control 4.11 10^−2 µm^2/s was 0.075 µm^2/s, the explored area of extrasynaptic SEP-γ2-GABAARs with the disrupting peptide TATD5Ct (10 µM); control 1.24 10^−2 µm^2 turned out to be 0.0245 µm^2 and the immobile fraction of extrasynaptic SEP-γ2-GABAARs with the disrupting peptide TATD5Ct (10 µM); control 25% amounted to 17%.

In assay [4], “dopamine D5 receptor fused to the yellow fluorescent protein (YFP) (from UniProt P25115 1-475)” had a diffusion coefficient median of extrasynaptic D5Rs (D5R–YFP) after incubation with the disrupting peptide TATD5Ct (10 µM); control 7.42 10^−2 µm^2/s of 0.103 µm^2/s; an explored area of extrasynaptic D5Rs (D5R–YFP) with the disrupting peptide TATD5Ct (10 µM); control 2.37 10^−2 µm^2 of 0.0345 µm^2; an immobile fraction of extrasynaptic D5Rs (D5R–YFP, single nanoparticle tracking) with the disrupting peptide TATD5Ct (10 µM); not changed of 15%.

Values taken from PMC8125140.
